Numbering of substitutions follows the chain as printed. In names and notes the source's numbering stands.
T1: human α-CGRP 1-37 (WT) (human, C-terminal amide; N-terminal biotin when captured on the SA chip; 125I-labelled in the radioligand assay)
T1 construct: also called α-human
T1 peptide: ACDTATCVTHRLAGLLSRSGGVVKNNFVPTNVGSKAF

T2: rat α-CGRP (1-37) (rat, C-terminal amide; N-terminal biotin when captured on the SA chip)
T2 construct: also called rat α (1-37); α-rat
T2 peptide: T1 peptide with A1S, D3N, N25D, K35E

B1: G1 variant M34 Fab (Fab, V domains shown)
VH: EVQLVESGGGLVQPGGSLRLSCAASGFTFSNYWISWVRQAPGKGLEWVAEIRSKSDNTATHYAEAVKGRFTISRDNAKNSLYLQMNSLRAEDTAVYYCTVYFDYGLAIQNYWGQGTLVTVSS
VL: EIVLTQSPATLSLSPGERATLSCKASKNVGTYVSWYQQKPGQAPRLLIYGASNRYLGIPARFSGSGSGTDFTLTISSLEPEDFAVYYCSQSYNYPYTFGQGTKLEIK
notes: Fab; constant domains as m1
B2: G1 variant M35 Fab (Fab, V domains shown)
VH: B1 VH with N57S, T58S
VL: B1 VL
notes: Fab; constant domains as m1
B3: G1 variant M41 Fab (Fab, V domains shown)
VH: B1 VH with T58S, E64D
VL: B1 VL with G30T, G50A, L56T
notes: Fab; constant domains as m1
B4: G1 variant M52 Fab (Fab, V domains shown)
VH: B1 VH with T58A
VL: B1 VL with G30T, L56I
notes: Fab; constant domains as m1; printed L561 read as L56I
B5: G1 variant M58 Fab (Fab, V domains shown)
VH: B1 VH with T58I, H61F
VL: B1 VL with G30D, L56S
notes: Fab; constant domains as m1
B6: G1 variant M45 Fab (Fab, V domains shown)
VH: B1 VH with T58E, E64D
VL: B1 VL with G30T, G50A, L56T
notes: Fab; constant domains as m1
B7: G1 variant M49 Fab (Fab, V domains shown)
VH: B1 VH with T58Y, H61F
VL: B1 VL with G30T, G50A, L56T
notes: Fab; constant domains as m1
B8: G1 variant M53 Fab (Fab, V domains shown)
VH: B1 VH with T58G
VL: B1 VL with G30T, L56I
notes: as for B4
B9: G1 variant M36 Fab (Fab, V domains shown)
VH: B1 VH with K54E, N57A, T58S
VL: B1 VL with G30R
notes: Fab; constant domains as m1
B10: G1 variant M44 Fab (Fab, V domains shown)
VH: B1 VH with T58E
VL: B1 VL with G30T, G50A, L56T
notes: Fab; constant domains as m1
B11: G1 variant M43 Fab (Fab, V domains shown)
VH: B1 VH with T58C
VL: B1 VL with G30T, G50A, L56T
notes: Fab; constant domains as m1
B12: G1 variant M56 Fab (Fab, V domains shown)
VH: B1 VH with T58S, H61F
VL: B1 VL with G30D, L56S
notes: Fab; constant domains as m1
B13: G1 variant M46 Fab (Fab, V domains shown)
VH: B1 VH with T58E, H61F
VL: B1 VL with G30T, G50A, L56T
notes: Fab; constant domains as m1
B14: G1 variant M54 Fab (Fab, V domains shown)
VH: B1 VH with T58P
VL: B1 VL with G30A, G50A
notes: Fab; constant domains as m1
B15: G1 variant M57 Fab (Fab, V domains shown)
VH: B1 VH with T58E
VL: B1 VL with G30D, L56S
notes: Fab; constant domains as m1
B16: G1 variant M55 Fab (Fab, V domains shown)
VH: B1 VH with T58E, E64D
VL: B1 VL with G30A, L56S
notes: Fab; constant domains as m1
B17: G1 variant M39 Fab (Fab, V domains shown)
VH: B1 VH with K54E, T58Y
VL: B1 VL with G30T, G50A, L56T
notes: Fab; constant domains as m1
B18: G1 variant M38 Fab (Fab, V domains shown)
VH: B1 VH with K54E, N57A, T58S
VL: B1 VL with G30W
notes: Fab; constant domains as m1
B19: G1 variant M37 Fab (Fab, V domains shown)
VH: B1 VH with K54E, N57G, T58S
VL: B1 VL with G30S
notes: Fab; constant domains as m1
B20: G1 variant M42 Fab (Fab, V domains shown)
VH: B1 VH with T58S, H61F
VL: B1 VL with G30T, G50A, L56T
notes: Fab; constant domains as m1
B21: G1 variant M50 Fab (Fab, V domains shown)
VH: B1 VH with N57R, T58S
VL: B1 VL with G30T, G50A, L56T
notes: Fab; constant domains as m1
B22: G1 variant M51 Fab (Fab, V domains shown)
VH: B1 VH with N57G, T58S
VL: B1 VL with G30T, L56I
notes: as for B4
B23: G1 variant M48 Fab (Fab, V domains shown)
VH: B1 VH with T58L
VL: B1 VL with G30T, G50A, L56T
notes: Fab; constant domains as m1
B24: G1 variant M47 Fab (Fab, V domains shown)
VH: B1 VH with T58G
VL: B1 VL with G30T, G50A, L56T
notes: Fab; constant domains as m1
B25: G1 variant M40 Fab (Fab, V domains shown)
VH: B1 VH with N57L, T58S
VL: B1 VL with G30T, G50A, L56T
notes: Fab; constant domains as m1

Molecular target: T1, human α-CGRP 1-37 (WT)
Assay: Biacore, 37°C, Fab over CGRP on SA chip
Procedure: (§1) Biacore assay for affinity determination. […] All Biacore assays were conducted in HBS-EP running buffer (10 mM HEPES pH 7.4, 150 mM NaCl, 3 mM EDTA, 0.005% v/v polysorbate P20). CGRP surfaces were prepared by diluting the N-biotinylated CGRP to a concentration of less than 0.001 mg/mL into HBS-EP buffer and injecting it across the SA sensor chip using variable contact times. […] Samples were typically injected for 1 minute at 100 μL/min and dissociation times of at least 10 minutes were allowed. […] An entire titration series (typically generated in duplicate) was fit globally to a 1:1 Langmuir binding model using the BIAevaluation program. This returned a unique pair of association and dissociation kinetic rate constants (respectively, kₒₙ and koff) for each binding interaction, whose ratio gave the equilibrium dissociation constant (KD=koff/kₒₙ). […]

| Kd | koff | Binder |
| --- | --- | --- |
| 4.04 nM | 0.000646 s⁻¹ | B1 |
| 2.12 nM | 0.000339 s⁻¹ | B2 |
| 1.31 nM | 0.00021 s⁻¹ | B3 |
| 1.76 nM | 0.000281 s⁻¹ | B4 |
| 12.2 nM | 0.00195 s⁻¹ | B5 |
| 1.85 nM | 0.000211 s⁻¹ | B6 |
| 3.72 nM | 0.000595 s⁻¹ | B7 |
| 2.34 nM | 0.000374 s⁻¹ | B8 |
| 1.49 nM | 0.000239 s⁻¹ | B9 |
| 2.05 nM | 0.00021 s⁻¹ | B10 |
| 1.64 nM | 0.000263 s⁻¹ | B11 |
| 2.99 nM | 0.000479 s⁻¹ | B12 |
| 3.37 nM | 0.000539 s⁻¹ | B13 |
| 11.2 nM | 0.00179 s⁻¹ | B14 |
| 3.08 nM | 0.000322 s⁻¹ | B15 |
| 2.99 nM | 0.000478 s⁻¹ | B16 |
| 2.66 nM | 0.000425 s⁻¹ | B17 |
| 1.36 nM | 0.000218 s⁻¹ | B18 |
| 1.41 nM | 0.000226 s⁻¹ | B19 |
| 2.61 nM | 0.000417 s⁻¹ | B20 |
| 2.54 nM | 0.000406 s⁻¹ | B21 |
| 0.82 nM | 0.000131 s⁻¹ | B22 |
| 5.26 nM | 0.000842 s⁻¹ | B23 |
| 2.08 nM | 0.000332 s⁻¹ | B24 |
| 8 nM | 0.00128 s⁻¹ | B25 |

Molecular target: T2, rat α-CGRP (1-37)
Assay: Biacore, 37°C, Fab over CGRP on SA chip
Procedure: as §1

| Kd | koff | binding result | Binder |
| --- | --- | --- | --- |
| 121 nM | 0.00217 s⁻¹ | – | B1 |
| 222 nM | 0.00399 s⁻¹ | – | B2 |
| 252 nM | 0.00453 s⁻¹ | – | B3 |
| 127 nM | 0.00229 s⁻¹ | – | B4 |
| – | – | no binding | B5 |
| 259 nM | 0.00558 s⁻¹ | – | B6 |
| 822 nM | 0.0148 s⁻¹ | – | B7 |
| 106 nM | 0.00191 s⁻¹ | – | B8 |
| 266 nM | 0.00479 s⁻¹ | – | B9 |
| 443 nM | 0.00613 s⁻¹ | – | B10 |
| 252 nM | 0.00453 s⁻¹ | – | B11 |
| 519 nM | 0.00935 s⁻¹ | – | B12 |
| 163 nM | 0.00294 s⁻¹ | – | B13 |
| 120 nM | 0.00216 s⁻¹ | – | B14 |
| 1200 nM | 0.0104 s⁻¹ | – | B15 |
| 325 nM | 0.00585 s⁻¹ | – | B16 |
| 553 nM | 0.00995 s⁻¹ | – | B17 |
| 284 nM | 0.00511 s⁻¹ | – | B18 |
| 80.6 nM | 0.00145 s⁻¹ | – | B19 |
| 418 nM | 0.00752 s⁻¹ | – | B20 |
| 294 nM | 0.0053 s⁻¹ | – | B21 |
| 65.6 nM | 0.00118 s⁻¹ | – | B22 |
| 1910 nM | 0.0343 s⁻¹ | – | B23 |
| 457 nM | 0.00823 s⁻¹ | – | B24 |
| 20000 nM | 0.36 s⁻¹ | – | B25 |

From US20190071490A1 (BETH ISRAEL DEACONESS MEDICAL CENTER, published 2019)
